Source: patent US20030082561

Key:
Assay in all cases: EMSA
[1] = tested on: ZFP Clone 6 (6-finger) (artificial); details: probe flanks not given; 0.1 mM ZnCl2, 100 mM NaCl, on ice
[2] = tested on: ZFP Clone 7 (6-finger) (artificial); details: probe flanks not given; 0.1 mM ZnCl2, 100 mM NaCl, on ice
[3] = tested on: ZFP Clone 5 (BCTV L1 6-finger) (artificial); details: 10 mM Tris-HCl pH 7.5, 100 mM NaCl, 1 mM MgCl2, 0.1 mM ZnCl2, 1 mg/ml BSA, 10% glycerol, poly(dA-dT)2, on ice

Sequence: AGTAAGGTAGGAGATGATA (double strand) [Clone 6 target]
- Kd [1]: < 3 pM

Sequence: TACGTGGCATTGGGTGCTC (double strand) [Clone 7 target]
- Kd [2]: < 3 pM

Sequence: TATATATATTGGGTGCTTTGGGTGCTCTATATATA (double strand) [L1 19-bp target probe]
- Kd [3]: < 3 pM
